Key:
[1] = molecular target: the molecule itself; assay: X-ray crystal structure superimposed on the design model; homotrimer
Excerpt: (§1) The optimum conditions for crystallization of the different designs were found as follows: 2L6HC3_6, 0.2 M Sodium Fluoride, 0.1 M MES pH 5.5 and 20% PEG 400; 2L6HC3_12, 2.2 M Sodium Malonate pH 5.0; 2L6HC3_13, 0.06 M Citric acid, 0.04 M BIS-TRIS propane pH 4.1 and 16% PEG 3,350; 2L8HC4_12, 0.2 M Sodium Acetate trihydrate, 0.1 M Tris hydrochloride pH 8.5 and 30% PEG 4,000; 3L6HC2_2, 0.1 M Sodium Acetate trihydrate pH 4.5 and 3.0 M Sodium chloride; 2L4HC2_23, 0.2 M Lithium chloride and 20% PEG 3,350; 2L4HC2_9, 0.1 M Sodium citrate tribasic dehydrate […]; 2L4HC2_11, 0.1 M Tris pH 8.5 and 2.0 M Ammonium sulfate; 5L6HC3_1, 0.1 M acid pH 3.5 and 3.0 M Sodium chloride; and 2L4HC2_24 was concentrated to 20 mg/ml and crystallized in 0.1 M Citric acid pH 3.5, 2.0 M Ammonium sulfate. […]
(§2) The crystals of the designed proteins were placed in a reservoir solution containing 15 to 20% (v/v) glycerol, and then flash-cooled in liquid nitrogen. […] All the design structures were determined by the molecular-replacement method with the program PHASER within the Phenix suite using the design models as the initial search model. […] Root-mean-square deviation differences from ideal geometries for bond lengths, angles and dihedrals were calculated with Phenix. The overall stereochemical quality of all final models was assessed using the program MOLPROBITY.

[2] = molecular target: the molecule itself; assay: oligomeric state of the purified design, and SAXS; antiparallel homodimer
Experimental: (§3) Samples were purified by gel filtration in 20 mM Tris pH 8.0 at room temperature, 150 mM NaCl and 2% glycerol; fractions preceding the void volume of the column were used as blanks for buffer subtraction. Scattering measurements were performed at the SIBYLS 12.3.1 beamline at the Advanced Light Source. The X-ray wavelength (λ) was 1 Å, and the sample-to-detector distance of the Mar 165 detector was 1.5 m, corresponding to a scattering vector q (q=4πsin θ/λ, where 2θ is the scattering angle) range of 0.01 to 0.3 Å−1. Data sets were collected using exposures of 0.5, 1, and 6 seconds at 12 keV. […] For each sample, data was collected for at least two different concentrations to test for concentration-dependent effects; “high” concentration samples ranged from 3-7 mg/ml and “low” concentration samples ranged from 1-2 mg/ml. […] FoXS was used to compare design models to experimental scattering profiles and calculate quality of fit (X) values. For the design models, extra residues introduced by the expression vector were added to the computational models using Rosetta™ Remodel so that the design sequence matched that of the experimental sample. To capture the conformational flexibility of these extra tag residues in solution, 100 independent models were generated per design. These 100 models were then clustered by Rosetta™, and to avoid bias, the cluster center of the largest cluster was selected as the single representative model used for fitting to experimental data.

[3] = molecular target: the molecule itself; assay: SAXS, design model fit to the scattering data with FoXS
Experimental: (§4) Samples were purified by gel filtration in 20 mM Tris pH 8.0 at room temperature, 150 mM NaCl and 2% glycerol; fractions preceding the void volume of the column were used as blanks for buffer subtraction. Scattering measurements were performed at the SIBYLS 12.3.1 beamline at the Advanced Light Source. The X-ray wavelength (λ) was 1 Å, and the sample-to-detector distance of the Mar 165 detector was 1.5 m, corresponding to a scattering vector q (q=4πsin θ/λ, where 2θ is the scattering angle) range of 0.01 to 0.3 Å−1. Data sets were collected using exposures of 0.5, 1, and 6 seconds at 12 keV. […] For each sample, data was collected for at least two different concentrations to test for concentration-dependent effects; “high” concentration samples ranged from 3-7 mg/ml and “low” concentration samples ranged from 1-2 mg/ml. […] FoXS was used to compare design models to experimental scattering profiles and calculate quality of fit (X) values. For the design models, extra residues introduced by the expression vector were added to the computational models using Rosetta™ Remodel so that the design sequence matched that of the experimental sample. To capture the conformational flexibility of these extra tag residues in solution, 100 independent models were generated per design. […]

[4] = molecular target: the molecule itself; assay: SAXS against the homotetramer design model
Experimental: as §3

[5] = molecular target: the molecule itself; assay: SAXS against the parallel homodimer design model
Experimental: as §4

[6] = molecular target: the molecule itself; assay: X-ray crystal structure; homodimer
Excerpt: as §1, §2

[7] = molecular target: the molecule itself; assay: X-ray crystal structure (3.8 Å) and SAXS; homotetramer
Experimental: The crystals of the designed proteins were placed in a reservoir solution containing 15 to 20% (v/v) glycerol, and then flash-cooled in liquid nitrogen. The X-ray data sets were collected at the Berkeley Center for Structural Biology beamlines 5.0.1, 8.2.1 and 8.2.2 of the Advanced Light Source at Lawrence Berkeley National Laboratory (LBNL). Data sets were indexed and scaled using HKL2000. All the design structures were determined by the molecular-replacement method with the program PHASER within the Phenix suite using the design models as the initial search model. The atomic positions obtained from molecular replacement and the resulting electron density maps were used to build the design structures and initiate crystallographic refinement and model rebuilding. Structure refinement was performed using the phenix.refine program. Manual rebuilding using COOT and the addition of water molecules allowed construction of the final models. Root-mean-square deviation differences from ideal geometries for bond lengths, angles and dihedrals were calculated with Phenix. The overall stereochemical quality of all final models was assessed using the program MOLPROBITY.
Samples were purified by gel filtration in 20 mM Tris pH 8.0 at room temperature, 150 mM NaCl and 2% glycerol; fractions preceding the void volume of the column were used as blanks for buffer subtraction. […]

[8] = molecular target: the molecule itself; assay: X-ray crystal structure; homotrimer
Excerpt: as §1, §2

[9] = molecular target: the molecule itself; assay: X-ray crystal structure superimposed on the design model; homodimer
Excerpt: as §1, §2

[10] = molecular target: the molecule itself; assay: characterisation of the purified design (method not given); self-association
[11] = molecular target: the molecule itself; assay: oligomeric state and CD of the synthetic peptide in PBS; self-association

B1: 2L6HC3_6 (designed binder)
chain: GTKYKIKETLKRLEDSLRELRRILEELKEMLERLEKNPDKDVIVEVLKVIVKAIEASVENQRISAENQKALAESD
notes: Monomer subunit of a designed left-handed C3 homotrimer; entries pair it with itself; also called XXBB
[1]
  binding result: binds

B2: 2L6Hanti_1 (designed binder)
chain: SDYLRLATEHNKLAVEANRLAIELAKSAVELAETDPSKTALEHAELAARLLEMMVQFTKAAQELTREAIRKEGRNEESEKVLRKSKEAYKESEKALEDARRLLDELRKKGS
notes: Monomer subunit (three helices) of a designed left-handed antiparallel homodimer; entries pair it with itself
[2]
  binding result: binds

B3: 5L4HC2_12 (designed binder)
chain: GTETKKLVEEVERALRELLKTSEDLVRKVEKALRELLELIRRGGTKDKIEEKIRRVLEEIKRELERQKRKIEDVLRQIKEELYRS
notes: Monomer subunit of a designed untwisted C2 homodimer; entries pair it with itself
[3]
  binding result: binds

B4: 5L8HC4_1 (designed binder)
chain: GSKVEELLRKSEEAAERAKRELERLLEESERIVAEAQALAEKYESQKVWVRILIELIRATNRMLAEIARILLEMIEVTNRMIAESTK
notes: Monomer subunit of a designed untwisted C4 homotetramer; entries pair it with itself
[4]
  binding result: binds

B5: 5L8HC4_6 (designed binder)
chain: GSKDTEDSRKIWEDIRRLLEEARKNSEEIWKEITKNPDTSEIARLLSEQLLEIAEMLVRIAELLSRQTEQR
notes: as for B4
[4]
  binding result: binds

B6: 2L6Hanti_4 (designed binder)
chain: SRRLELAARINKAAAENARSAIEIQELAARLADELSSSKKVIDFARATTEVLRMSVKLLKLSLEMLEEAARQDGRSEEVRYLAEESKKILEEARKALEDADRLTKRIEEEGS
notes: Monomer subunit of a designed left-handed antiparallel homodimer; entries pair it with itself
[2]
  binding result: binds

B7: 3L6HC2_4 (designed binder)
chain: SALEKIAKLIIEAARLSAELARRAARASAEMARKAIEAVSEERGSESLLKIVADLIVESQEAVVRLIIESQQIAAKLAEDLIRAAKEAASDESKMEEVAKEVQERAERAARDIERKLKRVLEELDYKLKESRDGS
notes: Monomer subunit of a designed parallel right-handed six-helix C2 homodimer; entries pair it with itself
[5]
  binding result: binds

B8: 2L6Hanti_2 (designed binder)
chain: SEELRKAAENNELAVRLAEAALRMARSALHLFEENPSDEMLKFLELAMEVAKMAAELLKASLKMLKKAAEERGSDESVKYLADKSRDIMRQITEELKKLEEEAKRAQKRGS
notes: as for B6
[2]
  binding result: binds

B9: 2L4HC2_24 (designed binder)
chain: GTDTDELLRLAKEQAELLKEIKKLVEEIARLVKEIQEDPSDELLKTLAELVRKLKELVEDMERSMKEQLYIIKKQKS
notes: Monomer subunit of a designed left-handed C2 homodimer; entries pair it with itself
[6]
  binding result: binds

B10: 2L8HC4_12 (designed binder)
chain: GTAIEANSRMLKALIEIAKAIWKALWANSLLLEATSRGDTERMRQWAEEAREIYKEAKKIIDEADEIVKEAKERHD
notes: Monomer subunit of a designed left-handed C4 homotetramer; entries pair it with itself; also called lefthanded tetramer
[7]
  binding result: binds

B11: 3L6HC2_7 (designed binder)
chain: SILELAHESNRRALEMASRANREAMKAAREMIRAASEAARRAGSSNDKDSLRMIEEALRLALRMIEETNKKAVRMVLENNRKMVEAEKKKLSEEEIKRIAKETEDRMREIARRASEEARRLAEEIKREADYRSGS
notes: as for B7
[5]
  binding result: binds

B12: 5L6HC3_1 (designed binder)
chain: SEELRAVADLQRLNIELARKLLEAVARLQELNIDLVRKTSELTDEKTIREEIRKVKEESKRIVEEAEEEIRRAKEESRYIADESRGS
notes: Monomer subunit of a designed untwisted C3 homotrimer; entries pair it with itself; also called untwisted trimer
[8]
  binding result: binds

B13: 2L6HC3_13 (designed binder)
chain: GTKYELRRALEELEKALRELKKSLDELERSLEELEKNPSEDALVENNRLNVENNKIIVEVLRIIAEVLKINAKSD
notes: Monomer subunit of a designed left-handed C3 homotrimer; entries pair it with itself; also called AAXX
[1]
  binding result: binds

B14: 5L8HC4_2 (designed binder)
chain: SEQLKEIARILIKLIESLTRFILEVARILIELIEETQRLIVASTDSDESELERIARESKKKAKKALDELKKIVDDQRREAKKAIEELEYDGS
notes: as for B4
[4]
  binding result: binds

B15: 2L4HC2_23 (designed binder)
chain: GTRTEIIRELERSLREQEELAKRLKELLRELERLQREGSSDEDVRELLREIKELVEEIEKLAREQKYLVEELKRQD
notes: as for B9
[9]
  binding result: binds

B16: 2L6Hanti_3 (designed binder)
chain: SEKARIAVENLEAALRLNRAAAEMQKSAIKIMDDNRSDEKALRYLRLTTKVLRMSVELLRASLELAEKALREEGSDDSAEKVRKEAEEILKESTEILKEADKETKRADEEGS
notes: as for B6
[2]
  binding result: binds

B17: 2L4HC2_9 (designed binder)
chain: GTSDYIIEQIQRDQEEARKKVEEAEERLERVKEASKRGVSSDQLLDLIRELAEIIEELIRIIRRSNEAIKELIKNQS
notes: Monomer subunit (helical hairpin) of a designed left-handed C2 homodimer; entries pair it with itself; Expressed in E. coli with a His tag (C-terminal, or N-terminal and thrombin-cleavable); Underlined residues are said to be optional, but the underlining is not visible
[10]
  binding result: binds

B18: 2L6Hanti_5 (designed binder)
chain: TDVLRIAAENLKAAVELAKAALEMAKSAIEIAKTLTEDDEALKFARAAAEVLRMAAKLLKLSIELARKAAEEEGSDDEVRYILDEARKQADELREALKKVDEIMKELDKRGS
notes: as for B6
[2]
  binding result: binds

B19: 2L6HC3_12 (designed binder)
chain: GTKYELRRALEELEKALQELREMLRKLKESLEELKKNPSEDALVRNNELIVEVLRVIVEVLSIIARVLEINARSD
notes: Monomer subunit of a designed left-handed C3 homotrimer; entries pair it with itself
[8]
  binding result: binds

B20: 2L4HC2_11 (designed binder)
chain: GSEDYKLREAQRELDKQRKDTEEIRKRLKEIQRLTDERTSTADELIKELREIIRRLQEQSEKLREIIEELEKIIRKR
notes: as for B9
[6]
  binding result: binds

B21: 2L6HC3_13_inner (peptide)
peptide: Ac-TERENNYRNEENNRKIEEEIREIKKEIKKNKERD-NH2
notes: Synthetic inner-ring-only peptide; reported as unfolded and monomeric in isolation; also called inner ring peptide of 2L6HC3_13
[11]
  binding result: no binding
